Legend:
[1] = molecular target: T1, bovine fibrinogen (Sigma Company), P02672
T1 chain 1: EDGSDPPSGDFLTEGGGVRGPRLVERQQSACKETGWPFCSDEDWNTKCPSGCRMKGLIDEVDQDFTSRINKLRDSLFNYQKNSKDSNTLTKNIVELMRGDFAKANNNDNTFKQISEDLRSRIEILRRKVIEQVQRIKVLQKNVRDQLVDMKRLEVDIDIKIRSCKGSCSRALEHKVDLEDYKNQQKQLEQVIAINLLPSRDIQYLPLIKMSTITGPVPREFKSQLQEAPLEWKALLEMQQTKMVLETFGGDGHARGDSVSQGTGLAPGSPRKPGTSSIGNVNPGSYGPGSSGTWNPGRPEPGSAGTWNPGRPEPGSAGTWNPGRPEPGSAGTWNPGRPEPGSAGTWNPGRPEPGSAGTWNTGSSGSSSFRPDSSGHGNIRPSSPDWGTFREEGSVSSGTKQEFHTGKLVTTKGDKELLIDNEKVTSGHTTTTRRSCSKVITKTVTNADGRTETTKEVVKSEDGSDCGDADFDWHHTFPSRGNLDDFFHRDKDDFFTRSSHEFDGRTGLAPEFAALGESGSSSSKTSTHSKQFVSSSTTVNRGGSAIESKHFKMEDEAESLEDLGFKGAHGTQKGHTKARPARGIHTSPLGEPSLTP
T1 chain 2: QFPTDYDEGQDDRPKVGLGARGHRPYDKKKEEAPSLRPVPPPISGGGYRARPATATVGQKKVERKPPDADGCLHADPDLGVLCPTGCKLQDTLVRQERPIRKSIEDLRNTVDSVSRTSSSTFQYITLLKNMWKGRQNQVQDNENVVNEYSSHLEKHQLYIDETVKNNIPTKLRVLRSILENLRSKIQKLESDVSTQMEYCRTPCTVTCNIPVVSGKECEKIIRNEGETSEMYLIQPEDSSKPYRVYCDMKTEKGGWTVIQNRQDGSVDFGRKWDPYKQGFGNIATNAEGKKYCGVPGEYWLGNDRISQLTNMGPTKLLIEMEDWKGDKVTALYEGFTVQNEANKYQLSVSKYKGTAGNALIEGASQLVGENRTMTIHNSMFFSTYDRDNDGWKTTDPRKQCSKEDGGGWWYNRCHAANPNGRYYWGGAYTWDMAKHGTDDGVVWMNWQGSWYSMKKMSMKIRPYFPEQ
T1 chain 3: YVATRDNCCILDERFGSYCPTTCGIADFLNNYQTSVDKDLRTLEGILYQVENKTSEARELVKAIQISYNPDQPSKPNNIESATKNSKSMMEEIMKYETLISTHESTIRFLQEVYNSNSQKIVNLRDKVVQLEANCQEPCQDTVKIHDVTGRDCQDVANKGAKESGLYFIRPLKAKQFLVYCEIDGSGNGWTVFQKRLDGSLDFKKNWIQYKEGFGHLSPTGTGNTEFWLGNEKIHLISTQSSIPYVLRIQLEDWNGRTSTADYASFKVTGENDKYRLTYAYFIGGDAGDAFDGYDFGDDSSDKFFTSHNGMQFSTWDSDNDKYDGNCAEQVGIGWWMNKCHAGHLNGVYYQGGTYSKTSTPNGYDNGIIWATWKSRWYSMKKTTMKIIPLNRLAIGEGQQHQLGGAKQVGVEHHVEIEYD

human fibrinogen, P02671 = molecular target: T2, human fibrinogen, P02671
T2 chain 1: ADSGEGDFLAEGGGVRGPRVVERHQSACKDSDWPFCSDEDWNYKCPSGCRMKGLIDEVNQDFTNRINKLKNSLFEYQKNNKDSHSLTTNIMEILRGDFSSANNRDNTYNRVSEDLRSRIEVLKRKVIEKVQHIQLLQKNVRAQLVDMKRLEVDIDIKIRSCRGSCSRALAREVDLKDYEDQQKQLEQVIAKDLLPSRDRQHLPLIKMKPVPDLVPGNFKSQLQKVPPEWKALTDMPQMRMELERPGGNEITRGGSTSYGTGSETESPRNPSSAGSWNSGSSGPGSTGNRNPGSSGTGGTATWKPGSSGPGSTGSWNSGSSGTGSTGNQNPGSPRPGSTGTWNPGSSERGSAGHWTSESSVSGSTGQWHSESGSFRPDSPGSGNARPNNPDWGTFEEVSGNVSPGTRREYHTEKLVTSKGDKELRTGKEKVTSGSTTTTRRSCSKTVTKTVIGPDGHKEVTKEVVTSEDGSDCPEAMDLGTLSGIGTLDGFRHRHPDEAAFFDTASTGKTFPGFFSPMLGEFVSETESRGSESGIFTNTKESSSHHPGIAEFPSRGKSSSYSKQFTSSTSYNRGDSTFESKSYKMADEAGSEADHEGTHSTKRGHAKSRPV
T2 chain 2: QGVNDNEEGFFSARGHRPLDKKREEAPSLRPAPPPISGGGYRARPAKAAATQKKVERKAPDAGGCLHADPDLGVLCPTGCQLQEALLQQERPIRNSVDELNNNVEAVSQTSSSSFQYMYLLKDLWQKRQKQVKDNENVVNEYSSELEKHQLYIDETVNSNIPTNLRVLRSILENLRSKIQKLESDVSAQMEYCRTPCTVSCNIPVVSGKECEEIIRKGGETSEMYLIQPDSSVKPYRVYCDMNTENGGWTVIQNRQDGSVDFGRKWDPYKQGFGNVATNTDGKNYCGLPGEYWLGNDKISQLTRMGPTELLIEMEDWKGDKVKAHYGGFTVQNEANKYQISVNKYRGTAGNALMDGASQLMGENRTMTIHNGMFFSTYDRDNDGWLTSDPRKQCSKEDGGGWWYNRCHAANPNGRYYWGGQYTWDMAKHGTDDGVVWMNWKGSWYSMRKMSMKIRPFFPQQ
T2 chain 3: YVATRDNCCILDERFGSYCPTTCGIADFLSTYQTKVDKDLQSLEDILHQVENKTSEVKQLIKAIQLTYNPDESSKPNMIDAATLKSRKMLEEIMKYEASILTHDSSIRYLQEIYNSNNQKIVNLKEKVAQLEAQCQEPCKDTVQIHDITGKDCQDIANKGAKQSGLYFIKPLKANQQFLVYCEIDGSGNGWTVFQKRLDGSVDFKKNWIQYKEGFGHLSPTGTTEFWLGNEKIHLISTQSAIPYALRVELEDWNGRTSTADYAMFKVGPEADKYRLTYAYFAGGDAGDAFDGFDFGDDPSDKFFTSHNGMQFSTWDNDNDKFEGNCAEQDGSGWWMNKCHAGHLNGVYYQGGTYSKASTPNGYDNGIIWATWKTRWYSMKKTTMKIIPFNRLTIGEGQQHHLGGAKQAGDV

B1: hemocoagulase of Agkistrodon acutus (protein)
chain 1: DCSSGWSSYEGHCYKVFKQSKTWADAESFCTKQVNGGHLVSLESSGEADFVGQLLAQKLKSAKLHVWLGLRAQNKEKQCSLQWSDGSSLSYENWLEEESKKCLGVHLETGFHKWENFYCEQQDPFVCEA
chain 2: DCPSDWSSYEGHCYKPFNEPKNWADAENFCTKQHTGGHLVSFQSTEEADFVVKLAFQTFDYGLFWFGLSKLWNQCNWQWSNAAMLKYTDWAEESYCVYFKSTNNKWRSLTCRMLANFVCEFQA
Agglutination time (tube 1#, 10 µl distilled water added) [1]: 50 s | Agglutination time (tube 2#, 10 µl isopropanol added) [1]: 50 s | Agglutination time (tube 3#, 10 µl PMSF added) [1]: more than 600 seconds | hydrolysis of human fibrinogen, SDS-PAGE after 0.5 h, 1 h, 2 h and 4 h at 37° C. (human fibrinogen, P02671): After the fibrinogen was treated with the hemocoagulase (1 unit) for 0.5 h and 1 h, the band of alpha subunit became gradually light, and after being treated for 2 h and 4 h, the band of alpha subunit disappeared completely
